Key:
[1] = target: copper (Cu-charged NTA beads); assay: NTA-copper bead pull-down of purified protein, IB quantified; conditions: 0.5 h at 4 °C; washed with NETN buffer (20 mm Tris-HCl (PH 8.0), 300 mm NaCl, 0.5% NP-40, 1 mm EDTA) 5 times; mean+/-SD, n = 3; parent: est. 2.4; read off a plot
[2] = target: copper (Cu pull-down beads); assay: copper pull-down, IB quantified; conditions: HEK293T cell lysate; mean+/-SD, n = 3; parent: est. 1.9; read off a plot

response [1]	response [2]	Substance
0.4	–	TAK1-N H154A; M196A
–	0.95	HA‐TAK1 (from UniProt O43318) H154A; M196A
–	0.8	HA‐TAK1 (from UniProt O43318) M196A
–	1	HA‐TAK1 (from UniProt O43318) H154A
